Substrate: CC/C=C/C=C\CCCCCCCCO
Experiment: batch acetylation assay, Hanes-Woolf plot
Type: biochemical, Acinetobacter baylyi
Settings: free enzyme in batch, before immobilization; co-substrate acetyl-CoA (300 µM in the preliminary time course); alcohol 1.25 µM-1.3 mM

B1: Acinetobacter wax synthase (atf, alcohol acetyl transferase; His6-tagged diacylglycerol acyl transferase) (Acinetobacter baylyi ADP1) (protein)
chain: MRPLHPIDFIFLSLEKRQQPMHVGGLFLFQIPDNAPDTFIQDLVNDIRISKSIPVPPFNNKLNGLFWDEDEEFDLDHHFRHIALPHPGRIRELLIYISQEHSTLLDRAKPLWTCNIIEGIEGNRFAMYFKIHHAMVDGVAGMRLIEKSLSHDVTEKSIVPPWCVEGKRAKRLREPKTGKIKKIMSGIKSQLQATPTVIQELSQTVFKDIGRNPDHVSSFQAPCSILNQRVSSSRRFAAQSFDLDRFRNIAKSLNVTINDVVLAVCSGALRAYLMSHNSLPSKPLIAMVPASIRNDDSDVSNRITMILANLATHKDDPLQRLEIIRRSVQNSKQRFKRMTSDQILNYSAVVYGPAGLNIISGMMPKRQAFNLVISNVPGPREPLYWNGAKLDALYPASIVLDGQALNITMTSYLDKLEVGLIACRNALPRMQNLLTHLEEEIQLFEGVIAKQEDIKTAN
notes: His6-tagged, pET23a, E. coli Rosetta(DE3)pLysS; Ni-NTA and gel filtration; tag kept; plasmid from S. Uthoff (Muenster)
**Q.** Which Km does the source give for B1 here?
**A.** The Km was 1.63 µM.
